The values below come from patent US20170066836A1 (NATIONAL UNIVERSITY CORPORATION KOCHI UNIVERSITY, published 2017).

Residue numbers refer to the chain shown, from its start.

By Kd is commonly meant the constant that tells how readily two partners part at equilibrium. As usually defined, the koff is the rate constant with which the complex falls apart. Usually kon stands for the second-order rate constant of association.

T1: human Glypican-1 forcibly expressed on CT01 chicken T-lymphoblast-like cells (CT01-GPC-1#42) (human, UniProt P35052 24-530)
T1 sequence: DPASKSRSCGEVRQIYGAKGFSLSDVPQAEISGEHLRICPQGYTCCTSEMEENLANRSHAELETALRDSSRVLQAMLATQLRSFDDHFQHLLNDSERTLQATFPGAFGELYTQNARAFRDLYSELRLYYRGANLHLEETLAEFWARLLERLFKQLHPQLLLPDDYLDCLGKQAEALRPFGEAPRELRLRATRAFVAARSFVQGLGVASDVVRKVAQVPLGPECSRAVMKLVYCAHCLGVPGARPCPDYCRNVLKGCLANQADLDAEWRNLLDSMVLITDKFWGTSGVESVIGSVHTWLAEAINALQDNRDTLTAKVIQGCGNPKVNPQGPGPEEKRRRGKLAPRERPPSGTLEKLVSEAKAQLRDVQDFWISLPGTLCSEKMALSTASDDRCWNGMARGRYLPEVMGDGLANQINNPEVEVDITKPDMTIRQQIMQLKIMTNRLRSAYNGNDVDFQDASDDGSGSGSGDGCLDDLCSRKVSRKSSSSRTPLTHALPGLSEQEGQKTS

T2: recombinant Glypican-1 (R&D systems 4519-GP-050) (Homo sapiens (Human), UniProt P35052 24-530)
T2 construct: Bought protein
T2 sequence: T1 sequence

T3: mouse Glypican-1 expressed on 293 cells (mouse, UniProt Q9QZF2 24-529)
T3 construct: whole, on cells; also called mouse GPC-1; mouse GPC1
T3 sequence (looked up): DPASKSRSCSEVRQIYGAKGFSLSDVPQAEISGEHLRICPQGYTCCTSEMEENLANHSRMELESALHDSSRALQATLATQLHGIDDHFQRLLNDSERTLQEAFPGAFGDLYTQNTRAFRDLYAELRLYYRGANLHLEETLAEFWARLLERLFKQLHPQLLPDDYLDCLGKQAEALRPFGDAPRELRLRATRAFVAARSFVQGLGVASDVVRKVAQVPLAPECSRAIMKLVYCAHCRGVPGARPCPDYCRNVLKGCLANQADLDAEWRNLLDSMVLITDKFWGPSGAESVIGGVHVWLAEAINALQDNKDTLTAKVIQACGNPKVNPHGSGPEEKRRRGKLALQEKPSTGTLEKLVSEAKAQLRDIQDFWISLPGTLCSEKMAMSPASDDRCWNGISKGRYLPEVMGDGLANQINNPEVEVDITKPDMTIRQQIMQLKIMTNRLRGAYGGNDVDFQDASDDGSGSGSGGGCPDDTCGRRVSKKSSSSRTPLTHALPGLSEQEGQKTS

B1: anti-GPC-1 antibody 1-50 (antibody, V domains shown)
VH: AVTLDESGGGLQTPGGALSLVCKASGFTFNNNGMSWVRQAPGKGLEWVAGISGAGYSNYAPAVKGRATISRDNGQSTVRLQLNSLRAEDTGTYFCAKVASSCGNECYTSGFIDAWGHGTEVIVST
VL: ALTQPASVSANLGGTVKITCSGGSGSYGWYQQKSPGSAPVTVIFWDNERPSDIPSRFSGSKSGSTHTLTITGVQAEDEAVYFCGSRDRMYDGIFGAGTTLTV
notes: detection was with anti-mouse IgG
B2: anti-GPC-1 antibody 1-18 (antibody, V domains shown)
VH: AVTLDESGGGLQTPGGALSLVCKASGFTFSSYTMFWVRQAPGKGLEFVAGIDNTGIYTPYGSAVKGRATISRDNGQSTVRLQLNNLRAEDTGTYYCAKYADACTGPWCGSSAYTGSTIDAWGHGTEVTVST
VL: ALTQPSSVSANPGETVKLTCSGGGSYYGWYQQKSPGSAPVTVIYENTERPSNIPSRFSGSTSGSTSTLTIIGVQADDEAVYFCGGYDSSTDAGIFGAGTTLTV
notes: as for B1
B3: anti-GPC-1 antibody 1-4 (antibody, V domains shown)
VH: AVTLEESGGGLQTPGGGLSLVCKASGFDFRNNGMAWVRQAPGKGLEWVAGISGTAYAVYGAAVKGRATISRDNGQSTVRLQLNNLRAEDTATYYCAKTVGSCGIDCHTTGFIDGWGHGTEVIVST
VL: ALTQPSSVSANPGETVKITCSGGSYSYGWFQQKSPGSAPVTVIYWDDERPSGIPSRFSGSKSGSTGTLTITGVQAEDEAVYFCGSRDSSYVGIFGAGTTLTV
notes: as for B1
B4: anti-GPC-1 antibody 1-30 (antibody, V domains shown)
VH: AVTLDESGGGLQTPGGGLSLVCKASGFTLNSYDMLWVRQAPGKGLEFVAAISIASGSSYAPAVKGRATISRDNGQSTVRLQLNNLRAEDTGTYYCARGGTGYYYSDATGQIDAWGHGTEVIVST
VL: ALTQPSSVSANPGETVKITCSGGSSGYGYGWYQQKAPGSAPVTVIYSNNQRPSNIPSRFSGSTSGSTSTLTITGVQADDEAVYYCGSTDSSTYDGIFGAGTTLTV
notes: as for B1
B5: anti-GPC-1 antibody 1-10 (antibody, V domains shown)
VH: AVTLDESGGGLQTPGGGLSLVCKASGFTFSGYDMMWVRQAPGKGLEWVGQISSTGSIQKYGAAVKGRATISRDNGQSTMRLQLNDLRAEDTGTYFCAKSAYGYSSSGPEDIDAWGHGTEVIVST
VL: ALTQPASVSANLGGTVKITCSGGSSDAYGWYQQKSPDSAPVTVIYGNNNRPSDIPSRFSGSTSGSTNTLTITGVQADDEAVYFCGSYDGSTDSDGIFGAGTTLTV
notes: as for B1
B6: anti-GPC-1 antibody 2-70 (antibody, V domains shown)
VH: AVTLDESGGGLQTPGGALSLVCKASGLSTFSDRGMHWVRQAPGKGLEFVAAISSSGRFTLYGAAVKGRATISRDNGQSTVRLQLNDLRAEDTAIYYCARGTTTGWWADAGEIDAWGHGTEVIVST
VL: ALTQPAFMSANPGETVKITCSGGSYSAYGWFQQKSPGSAPVTLIYNDNIRPSDISSRFSGSKSGSTATLTITGVQADDEAVYFCGNEDRNNTATFGAGTTLTV
notes: detection was with anti-mouse IgG and the control was mouse IgG2a; also called #19; clone 2-70
B7: anti-GPC-1 antibody 1-57 (antibody, V domains shown)
VH: AVTLDESGGGLQTPGGGLSLVCKGSGFTLTDRGMHWVRQAPGKGLEWVAAISSSGRFTLYAPAVTGRATISRDNGQSTVRLQLNNLRAEDTGTYYCARGNAGGWWADGGEIDAWGHGTEVIVST
VL: ALTQPSSVSANPGETVKITCSGGSGSYGWFQQKSPGSAPVTVIYSNNKRPTDIPSRFSGSKSGSTNTLTITGVQADDEAVYFCGSADSSYIGIFGAGTTLTV
notes: detection was with anti-mouse IgG and the control was mouse IgG2a; also called #10; clone 1-57
B8: anti-GPC-1 antibody 1-28 (antibody, V domains shown)
VH: B2 VH with G16R, G115A, T128I
VL: ALTQPASVSANLGGTVEITCSGGGNDYGWYQQKSPGSAPVTVIYDSINRPSNIPSRFSGSTSGSTATLTITGVQADDEAVYFCGSYDSSYVGIFGAGTTLTV
notes: detection was with anti-mouse IgG and the control was mouse IgG2a; also called #7; clone 1-28
B9: anti-GPC-1 antibody 2-60 (antibody, V domains shown)
VH: AVTLDESGGGLQTPGGALSLVCKASGFTYSSYAMGWVRQAPGKGLEFVASISSDGSDTAYGSAVKGRATISRDNRQSTLRLQLNNLRAEDTGTYYCAKSYRCSWNCWDYAAKIDAWGHGTEVTVS
VL: VALTQPASVSANPGETVKITCSGSGSYTGSYYYGWYQQKSPGSAPVTVIYNNNKRPSDIPSRFSGSTSGSTATLTITGVQAEDEAVYFCGSYDRSSDSGIFGAGTTLTV
notes: detection was with anti-mouse IgG and the control was mouse IgG2a; also called #17; clone 2-60
B10: anti-GPC-1 antibody 1-5 (antibody, V domains shown)
VH: AVTLDESGGGLQTPGGALSLVCKASGFKFRSYDMYWVRQAPGKGLEYVAGIINTGRETYYGAAVKGRATISRDNGRSTVRLQLNNLRAEDTGTYFCAKGAAWNYAGSIDAWGHGTEVIVST
VL: ALTQPASVSANPGETVKITCSGGSGSYGWYQQKSPGSAPVTVIYGDNKRPTDISSRFSGSTSGSTNTLTITGVQAEDEAVYFCGSRDNTYAGIFGAGTTLTV
notes: detection was with anti-mouse IgG and the control was mouse IgG2a; also called #2; clone 1-5
B11: anti-GPC-1 antibody 2-63 (antibody, V domains shown)
VH: AVTLDESGGGLQTPGGTLSLVCKASGFDFSSVNMFWVRQAPGKGLEFVAGIDNDATFTLYGSAVKGRASISRDNGQSTVRLQLNNLRAEDTGTYYCAKTLCSTTWGCGAYSAGDIDAWGHGTEVTVST
VL: ALTQPSSVSANPGETVKITCSGGGSSGYGYYGWYQQKSPGSAPVTVIYNNNKRPTDIPSRFSGALSGSTATLTITGVQVEDEAVYYCGSRDNTYVGIFGAGTTLTV
notes: detection was with anti-mouse IgG and the control was mouse IgG2a; also called #18; clone 2-63

The first assay deals with T1, human Glypican-1 forcibly expressed on …. As to the kind of experiment: FACS: clone as primary antibody, FITC-labeled goat anti-mouse IgG as secondary; CT01 cells forcibly expressing human Glypican-1 (CT01-GPC-1#42), Glypican-1-negative CT01 cells as negative cells. The method, then: In carrying out FACS analysis using an antibody, a chicken T-lymphoblast-like cell strain (CT01 cell) was used as a Glypican-1 negative cell and a CT01 cell (CT01-GPC-1#42) forcibly expressing human Glypican-1 was used as a Glypican-1 positive cell. Various clones of the developed antibodies were used as primary antibodies, a FITC-labeled Goat anti-Mouse IgG (H+L chain specific) (Southern Biotech) was used as a secondary antibody, measurement was carried out using FACS Cantoll (BD), and the measurement data was analyzed using Flow Jo (Tree Star). As a result, twenty types of clones were successfully developed as antibodies that can stain Glypican-1 with FACS.
In the case of B1, the binding result is recorded as “binds”.

With B2, the binding result is “binds”.

In the case of B3, the binding result is “binds”.

As to B4, the binding result is listed as “binds”.

On to B5, for which the binding result was “binds”.

The next assay deals with T4, human Glypican-3 expressed on 293 cells (pFLAG-CMV3 hGPC3) (human, UniProt P51654 25-554).
T4 construct: whole, on cells; FLAG-tagged through the vector; also called human GPC-3
T4 sequence (P51654 25-554 limits assumed): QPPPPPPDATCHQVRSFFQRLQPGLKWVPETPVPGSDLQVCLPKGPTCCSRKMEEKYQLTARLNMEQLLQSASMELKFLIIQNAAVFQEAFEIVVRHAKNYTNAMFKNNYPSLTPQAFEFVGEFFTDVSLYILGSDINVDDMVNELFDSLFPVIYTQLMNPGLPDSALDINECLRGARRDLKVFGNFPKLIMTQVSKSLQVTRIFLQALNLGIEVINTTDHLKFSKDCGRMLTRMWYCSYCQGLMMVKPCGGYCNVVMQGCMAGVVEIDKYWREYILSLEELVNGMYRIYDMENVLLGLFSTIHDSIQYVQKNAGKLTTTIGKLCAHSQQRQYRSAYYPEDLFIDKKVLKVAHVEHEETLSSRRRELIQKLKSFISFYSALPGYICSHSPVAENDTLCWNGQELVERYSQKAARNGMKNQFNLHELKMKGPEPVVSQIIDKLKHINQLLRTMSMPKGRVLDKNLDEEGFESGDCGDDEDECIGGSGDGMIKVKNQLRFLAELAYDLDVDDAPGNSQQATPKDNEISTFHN
The assay can be described thus: FACS on 293 cells transfected with pFLAG-CMV3 hGPC3. The procedure:
Subsequently, a characteristic of various anti-Glypican-1 antibodies that reacted with Glypican-1, but not with Glypican-3 was determined to prepare a chimeric protein expression vector having an amino acid sequence of the 430th or more position of Glypican-1 substituted with that of Glypican-3 (FIG. 17). Various expression vectors were transfected into the 293 cell and the reactivity with various anti-Glypican-1 antibodies was analyzed by FACS. Consequently, since the reactivity in FACS is not recognized in three clones #17(2-60), #2(1-5), and #10(1-57), it is believed that the epitope region in these clones is present in the 430th to the 530th corresponding to an extracellular region of Glypican-1 (FIG. 18).
B6: the binding result is given as “no binding”.

In the case of B7, the binding result is on record as “no binding”.

Turning to B8, the binding result is given as “no binding”.

Take B9: the binding result is “no binding”.

Turning to B10, the binding result is “no binding”.

In the next assay the target is T2, recombinant Glypican-1 (R&D systems …). The assay can be described thus: Biacore 3000 (SPR): antibody captured on rabbit anti-mouse IgG on a CM5 chip, recombinant Glypican-1 added at various concentrations; BIAevaluation 4.1. The procedure: Affinity analysis of an anti-Glypican-1 antibody was measured using Biacore 3000. A rabbit anti-mouse IgG polyclonal antibody of the Mouse Antibody Capture Kit was solid-phased to a CM5 sensor tip, various anti-Glypican1 antibody clones were captured, recombinant Glypican-1 (R&D systems 4519-GP-050) was added at various concentrations as a ligand, and binding and dissociation were monitored. The obtained sensorgram was analyzed using BIAevaluation 4.1 software and a KD value was calculated (FIG. 12).
(In general: Surface plasmon resonance follows binding to a sensor surface in real time, without labels.)
For B7, the Kd was 176 nM, the koff was found to be 0.00213 s⁻¹ and the kon is 12100 M⁻¹ s⁻¹.

B11: the Kd worked out at 6.19 nM, the koff came out at 0.000848 s⁻¹ and the association rate constant (kon) worked out at 137000 M⁻¹ s⁻¹.

Take B9: the Kd came out at 15.2 nM, the koff came out at 0.00105 s⁻¹ and the kon was 69100 M⁻¹ s⁻¹.

Take B10: the Kd worked out at 20.9 nM, the koff was determined as 0.000951 s⁻¹ and the kon is 45500 M⁻¹ s⁻¹.

The target in a further assay is T3, mouse Glypican-1 expressed on 293 cells. The assay can be described thus: FACS on 293 cells forcibly expressing mouse GPC1. The method, then: A mouse Glypican-1 expression vector or an empty vector was transfected to the 293 cell using lipofectamine 2000 and the reactivity with various clones of an anti-Glypican-1 antibody was analyzed by FACS.
For the molecule B7, the binding result is given as “binds”.

Take B8: the binding result was “binds”.

Consider B10, for which the binding result was “binds”.
